{
  "source": "paper PMC13132547",
  "test_in_all_cases": "cryo-EM structure",
  "key": {"[1]": {"target": "StrepII-tagged Wu1 S (soluble SARS-CoV-2 Wuhan-Hu-1 spike, 6P version) (SARS-CoV-2) (UniProt P0DTC2)"}, "[2]": {"target": "His-tagged BA.1 S (soluble SARS-CoV-2 Omicron BA.1 spike, 6P version) (SARS-CoV-2) (UniProt P0DTC2)"}, "[3]": {"target": "D7324-tagged Delta S (soluble SARS-CoV-2 Delta spike, 6P version) (SARS-CoV-2) (UniProt P0DTC2)"}},
  "data": [
    {"substance": "StrepII-tagged Wu1 S (soluble SARS-CoV-2 Wuhan-Hu-1 spike, 6P version) (from UniProt P0DTC2 14-1273) (natural protein)", "values": [
      {"measurement": "stoichiometry N", "setting": "[1]", "value": 3}
    ]},
    {"substance": "His-tagged BA.1 S (soluble SARS-CoV-2 Omicron BA.1 spike, 6P version) (from UniProt P0DTC2 14-1273) (natural protein)", "values": [
      {"measurement": "stoichiometry N", "setting": "[2]", "value": 3}
    ]},
    {"substance": "D7324-tagged Delta S (soluble SARS-CoV-2 Delta spike, 6P version) (from UniProt P0DTC2 14-1273) (natural protein)", "values": [
      {"measurement": "stoichiometry N", "setting": "[3]", "value": 3}
    ]}
  ]
}
